Measurements published in patent US20250188146A1.
Blank lines part the entries; values can stand above or below the binder they belong to.

What was measured:
[1] = molecular target: CLDN18.2 on KATO III-18.2+ cells (UniProt P56856); assay: cell-based or functional assay
CD19 = CD19 (UniProt P15391); assay: cell-based or functional assay
Chain of CD19 (P15391 20-556 limits assumed): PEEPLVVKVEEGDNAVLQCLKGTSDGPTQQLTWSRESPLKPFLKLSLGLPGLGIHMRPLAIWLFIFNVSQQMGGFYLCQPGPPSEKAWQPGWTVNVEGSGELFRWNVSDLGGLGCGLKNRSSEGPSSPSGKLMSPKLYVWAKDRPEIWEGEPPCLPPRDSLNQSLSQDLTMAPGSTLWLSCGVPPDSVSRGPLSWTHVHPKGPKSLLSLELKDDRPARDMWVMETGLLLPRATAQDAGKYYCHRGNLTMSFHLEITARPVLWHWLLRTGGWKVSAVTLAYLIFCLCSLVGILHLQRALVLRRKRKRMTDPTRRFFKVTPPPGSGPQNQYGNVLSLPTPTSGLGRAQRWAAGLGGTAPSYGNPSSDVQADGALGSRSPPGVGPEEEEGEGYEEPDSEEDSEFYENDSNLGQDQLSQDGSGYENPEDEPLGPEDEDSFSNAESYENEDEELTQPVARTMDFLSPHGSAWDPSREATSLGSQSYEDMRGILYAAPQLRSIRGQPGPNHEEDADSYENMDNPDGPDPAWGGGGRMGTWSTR

- CD137 expression of CAR T CD8+ cells, co-culture 48 h with KATO III-18.2+ [1]: 8.77%
B1: 18.2 CAR (protein, part only; not given: Hinge, transmembrane and signaling domains, part only)
chain, part: DIVMTQSPSSLTVTAGEKVTMSCKSSQSLLNSGNQKNYLTWYQQKPGQPPKLLIYWASTRESGVPDRFTGSGSGTDFTLTISSVQAEDLAVYYCQNDYSYPFTFGSGTKLEIKGGGGSGGGGSGGGGSQVQLQQPGAELVRPGASVKLSCKASGYTFTSYWINWVKQRPGQGLEWIGNIYPSDSYTNYNQKFKDKATLTVDKSSSTAYMQLSSPTSEDSAVYYCTRSWRGNSFDYWGQGTTLTVSS

- CD25, hCAR+ cells; K19 co-culture 24 h; PBMC+, IL6+, IL15- (CD19): 48.3%
- CD25, hCAR+ cells; K19 co-culture 24 h; PBMC+, IL6-, IL15- (CD19): 53%
- CD25, hCAR+ cells; K19 co-culture 24 h; PBMC-, IL6+, IL15- (CD19): 52.3%
- CD25, hCAR+ cells; K19 co-culture 24 h; PBMC-, IL6-, IL15+ (CD19): 57.1%
- CD25, hCAR+ cells; K19 co-culture 24 h; PBMC-, IL6-, IL15- (CD19): 53.1%
- CD25, hCAR+ cells; K19 co-culture 48 h; PBMC+, IL6+, IL15- (CD19): 34.2%
- CD25, hCAR+ cells; K19 co-culture 48 h; PBMC+, IL6-, IL15- (CD19): 35.8%
- CD25, hCAR+ cells; K19 co-culture 48 h; PBMC-, IL6+, IL15- (CD19): 39.1%
- CD25, hCAR+ cells; K19 co-culture 48 h; PBMC-, IL6-, IL15+ (CD19): 43.4%
- CD25, hCAR+ cells; K19 co-culture 48 h; PBMC-, IL6-, IL15- (CD19): 41.5%
- CD25 MFI, hCAR+ cells; K19 co-culture 24 h; PBMC+, IL6+, IL15- (CD19): 6740 MFI
- CD25 MFI, hCAR+ cells; K19 co-culture 24 h; PBMC+, IL6-, IL15- (CD19): 7080 MFI
- CD25 MFI, hCAR+ cells; K19 co-culture 24 h; PBMC-, IL6+, IL15- (CD19): 6480 MFI
- CD25 MFI, hCAR+ cells; K19 co-culture 24 h; PBMC-, IL6-, IL15+ (CD19): 6060 MFI
- CD25 MFI, hCAR+ cells; K19 co-culture 24 h; PBMC-, IL6-, IL15- (CD19): 6200 MFI
- CD25 MFI, hCAR+ cells; K19 co-culture 48 h; PBMC+, IL6+, IL15- (CD19): 11200 MFI
- CD25 MFI, hCAR+ cells; K19 co-culture 48 h; PBMC+, IL6-, IL15- (CD19): 11800 MFI
- CD25 MFI, hCAR+ cells; K19 co-culture 48 h; PBMC-, IL6+, IL15- (CD19): 12300 MFI
- CD25 MFI, hCAR+ cells; K19 co-culture 48 h; PBMC-, IL6-, IL15+ (CD19): 11400 MFI
- CD25 MFI, hCAR+ cells; K19 co-culture 48 h; PBMC-, IL6-, IL15- (CD19): 11100 MFI
- CD137, hCAR+ cells; K19 co-culture 24 h; PBMC+, IL6+, IL15- (CD19): 35.6%
- CD137, hCAR+ cells; K19 co-culture 24 h; PBMC+, IL6-, IL15- (CD19): 39.9%
- CD137, hCAR+ cells; K19 co-culture 24 h; PBMC-, IL6+, IL15- (CD19): 55.8%
- CD137, hCAR+ cells; K19 co-culture 24 h; PBMC-, IL6-, IL15+ (CD19): 62.1%
- CD137, hCAR+ cells; K19 co-culture 24 h; PBMC-, IL6-, IL15- (CD19): 57.4%
- CD137, hCAR+ cells; K19 co-culture 48 h; PBMC+, IL6+, IL15- (CD19): 28%
- CD137, hCAR+ cells; K19 co-culture 48 h; PBMC+, IL6-, IL15- (CD19): 47.1%
- CD137, hCAR+ cells; K19 co-culture 48 h; PBMC-, IL6+, IL15- (CD19): 57.6%
- CD137, hCAR+ cells; K19 co-culture 48 h; PBMC-, IL6-, IL15+ (CD19): 58.6%
- CD137, hCAR+ cells; K19 co-culture 48 h; PBMC-, IL6-, IL15- (CD19): 57.3%
- CD137MFI, hCAR+ cells; K19 co-culture 24 h; PBMC+, IL6+, IL15- (CD19): 18100 MFI
- CD137MFI, hCAR+ cells; K19 co-culture 24 h; PBMC+, IL6-, IL15- (CD19): 19000 MFI
- CD137MFI, hCAR+ cells; K19 co-culture 24 h; PBMC-, IL6+, IL15- (CD19): 23400 MFI
- CD137MFI, hCAR+ cells; K19 co-culture 24 h; PBMC-, IL6-, IL15+ (CD19): 25500 MFI
- CD137MFI, hCAR+ cells; K19 co-culture 24 h; PBMC-, IL6-, IL15- (CD19): 26800 MFI
- CD137MFI, hCAR+ cells; K19 co-culture 48 h; PBMC+, IL6+, IL15- (CD19): 43000 MFI
- CD137MFI, hCAR+ cells; K19 co-culture 48 h; PBMC+, IL6-, IL15- (CD19): 24800 MFI
- CD137MFI, hCAR+ cells; K19 co-culture 48 h; PBMC-, IL6+, IL15- (CD19): 51500 MFI
- CD137MFI, hCAR+ cells; K19 co-culture 48 h; PBMC-, IL6-, IL15+ (CD19): 51900 MFI
- CD137MFI, hCAR+ cells; K19 co-culture 48 h; PBMC-, IL6-, IL15- (CD19): 52600 MFI
- CD137 expression of CAR T CD8+ cells, co-culture 48 h with Nalm-6 (CD19): 11.1%
- IFN-γ release, background subtracted; K19 co-culture 24 h; PBMC+, IL6+, IL15- (CD19): 64300
- IFN-γ release, background subtracted; K19 co-culture 24 h; PBMC+, IL6-, IL15- (CD19): 64800
- IFN-γ release, background subtracted; K19 co-culture 24 h; PBMC-, IL6+, IL15- (CD19): 19200
- IFN-γ release, background subtracted; K19 co-culture 24 h; PBMC-, IL6-, IL15+ (CD19): 21300
- IFN-γ release, background subtracted; K19 co-culture 24 h; PBMC-, IL6-, IL15- (CD19): 16000
- IFN-γ release, background subtracted; K19 co-culture 48 h; PBMC+, IL6+, IL15- (CD19): 152000
- IFN-γ release, background subtracted; K19 co-culture 48 h; PBMC+, IL6-, IL15- (CD19): 160000
- IFN-γ release, background subtracted; K19 co-culture 48 h; PBMC-, IL6+, IL15- (CD19): 120000
- IFN-γ release, background subtracted; K19 co-culture 48 h; PBMC-, IL6-, IL15+ (CD19): 134000
- IFN-γ release, background subtracted; K19 co-culture 48 h; PBMC-, IL6-, IL15- (CD19): 114000
B2: CD19 CAR with humanized CD19 scFv (binding domain SEQ ID NO: 5) (protein, not shown: a dimerising Fc or GST)
chain: DIQMTQSPSSLSASVGDRVTITCRASQDISKYLNWYQQKPGKAPKLLIYHTSRLHSGVPSRFSGSGSGTDFTLTISSLQPEDFATYYCQQGNTLPYTFGQGTKVEIKGGGGSGGGGSGGGGSEVQLVESGGGLVQPGGSLRLSCAASGVSLPDYGVSWVRQAPGKGLEWVSVIWGSETTYYNSALKSRFTISRDNAKNSLYLQMNSLRAEDTAVYYCAKHYYYGGSYAMDYWGQGTLVTVSS
